Tests used:
[1] = test system: E18 rat hippocampal cultured neurons; assay: Live cell confocal microscopy of fluorescent α-Bgtx binding to cultured hippocampal neurons; conditions: 400 nM; untransfected neurons
Protocol: Dissociated hippocampal neurons were prepared from embryonic day 18 rat pups as described ([Hannan et al., 2012]). Briefly, hippocampi were dissected in ice-cold Hank's Balanced Salt Solution (HBSS) (Ca^2+/Mg^2+ free) before enzymatic dissociation in 0.1% (w/v) trypsin at 37 °C for 10 min followed by serial washes in pre-warmed HBSS to remove trypsin prior to trituration. Cells were mechanically dissociated using fire-polished glass Pasteur pipettes in plating medium composed of minimal essential medium (MEM) supplemented with 5% (v/v) fetal calf serum (FCS), 5% (v/v) horse serum, penicillin-G and streptomycin (200 units/ml and 200 μg/ml), 2 mM L-glutamine and 35 mM glucose. Cells were plated at a density of 10^6 per ml in plating medium on glass cover-slips previously coated with poly-D-lysine. The neurons were grown and maintained at 37 °C in a humidified 95% air/5% CO2 atmosphere.
In addition, low concentrations of fluorophore-conjugated α-Bgtx can also be used to avoid labelling of GABAARs as the affinity of α-Bgtx for endogenous GABAARs is lower compared to that for the BBS. […] Similarly, the over-expression of recombinant receptors in heterologous expression systems (HEK-293 cells) allows the detection of α-Bgtx fluorescence at low concentrations.

[2] = biological target: T1, β2 homomers (Mus musculus, UniProt P63137); assay: α-Bgtx-AF555 staining of HEK-293 cells expressing β homomers, with or without permeabilisation; type: binding, murine; conditions: 400 nM α-Bgtx-AF555, with or without permeabilisation
T1 construct: expressed in transfected cells; host or cells: HEK-293
Protocol: (§1) Murine GABAAR α1-6, β1-3, γ2 and δ cDNAs subcloned into pRK-5 and pEGFP-C1 have been described previously ([Mortensen et al., 2011]).
(§2) Cells were transfected with equimolar ratios of cDNAs encoding for α1–6, β1–3 and δ or γ2 GABAA receptor subunits along with eGFP using a calcium phosphate method ([Mortensen et al., 2011]) 15–45 min after plating.
(§3) Live transfected HEK-293 cells were studied 48 h after transfection and washed with Krebs to remove cell culture media and incubated in 400 nM α-Bgtx coupled with Alexa Fluor 555 (α-Bgtx-AF555; Life Technologies) for 10 min at room temperature (RT). Cells were washed and fixed in 4% paraformaldehyde (PFA; Sigma) for 10 min at RT. The cells were imaged immediately post-fixation in saline using a Zeiss LSM 510 Meta confocal microscope and an Achroplan x40 water DIC objective (NA 0.8) as described previously ([Hannan et al., 2012]). This involved choosing the optimal z-section and acquiring images as a mean of 4 scans in 16-bits using a 543 nm Helium–Neon laser and a 560 nm long-pass filter for α-Bgtx-AF555 and a 488 Argon laser with a 505–530 nm band-pass filter for eGFP.
(§4) In experiments using permeabilisation, cells were fixed in 4% PFA for 10 min at RT followed by washes (x3) in phosphate buffered saline (PBS; Sigma) and 0.1% triton-X100 (Sigma) was added for 10 min at RT in 10% (v/v) FCS. Cells were washed to remove the detergent and 400 nM α-Bgtx-AF555 was added for 10 min at RT to label intracellular receptors.
(§5) Confocal images were analysed using ImageJ (version 1.410) as described previously ([Hannan et al., 2013]). For each cell the surface membrane was identified by drawing a region-of-interest (ROI) in the eGFP channel and this was transferred to the α-Bgtx-AF555 channel and the mean membrane fluorescence values were determined. Mean background fluorescence was determined from a region devoid of cells. This was subtracted from the mean membrane fluorescence providing a mean corrected fluorescence intensity value. These values, for different combinations of receptors and drugs, were graphically plotted using Origin.

[3] = biological target: T2, β1 homomers (Mus musculus, UniProt P50571); assay: as above; type: binding, murine; conditions: 400 nM α-Bgtx-AF555, with or without permeabilisation
T2 construct: expressed in transfected cells; host or cells: HEK-293
Protocol: as §1, §2, §3, §4, §5

[4] = biological target: T3, β3 homomers (Mus musculus, UniProt P63080); assay: as above; type: binding, murine; conditions: 400 nM α-Bgtx-AF555, with or without permeabilisation
T3 construct: expressed in transfected cells; host or cells: HEK-293
Protocol: as §1, §2, §3, §4, §5

[5] = test system: HEK-293 cells expressing only eGFP; assay: α-Bgtx-AF555 cell surface staining of HEK-293 cells expressing only eGFP; type: binding; conditions: 400 nM α-Bgtx-AF555, 10 min RT, n = 6
Protocol: (§6) HEK-293 cells were maintained at 37 °C in a humidified 95% air/5% CO2 atmosphere in Dulbecco's modified Eagle's medium (DMEM) supplemented with 10% (v/v) fetal calf serum (FCS), penicillin-G and streptomycin (100 units/ml and 100 μg/ml), 2 mM L-glutamine. Cells were plated onto 22 mm glass coverslips (VWR), coated with poly-L-lysine (Sigma). All media components were from Life Technologies unless otherwise stated.
as §2
Live transfected HEK-293 cells were studied 48 h after transfection and washed with Krebs to remove cell culture media and incubated in 400 nM α-Bgtx coupled with Alexa Fluor 555 (α-Bgtx-AF555; Life Technologies) for 10 min at room temperature (RT). […]
Confocal images were analysed using ImageJ (version 1.410) as described previously ([Hannan et al., 2013]). For each cell the surface membrane was identified by drawing a region-of-interest (ROI) in the eGFP channel and this was transferred to the α-Bgtx-AF555 channel and the mean membrane fluorescence values were determined. Mean background fluorescence was determined from a region devoid of cells. This was subtracted from the mean membrane fluorescence providing a mean corrected fluorescence intensity value. […]

[6] = biological target: T4, α1β2γ2 GABAAR (Mus musculus, UniProt P22723+P62812+P63137); assay: α-Bgtx-AF555 cell surface staining of transfected HEK-293 cells; type: binding, murine; conditions: 400 nM α-Bgtx-AF555, 10 min RT; n = 6
T4 construct: expressed in transfected cells; host or cells: HEK-293
Protocol: as §1, §6, §2, §3, §5

[7] = biological target: T5, α2β2γ2 GABAAR (Mus musculus, UniProt P22723+P26048+P63137); assay: as above; type: binding, murine; conditions: 400 nM α-Bgtx-AF555, 10 min RT; n = 6
T5 construct: expressed in transfected cells; host or cells: HEK-293
Protocol: as §1, §6, §2, §3, §5

[8] = biological target: T6, α2β1γ2 GABAAR (Mus musculus, UniProt P22723+P26048+P50571); assay: as above; type: binding, murine; conditions: 400 nM α-Bgtx-AF555, 10 min RT; n = 6
T6 construct: expressed in transfected cells; host or cells: HEK-293
Protocol: as §1, §6, §2, §3, §5

[9] = biological target: T7, α1β1γ2 GABAAR (Mus musculus, UniProt P22723+P50571+P62812); assay: as above; type: binding, murine; conditions: 400 nM α-Bgtx-AF555, 10 min RT; n = 6
T7 construct: expressed in transfected cells; host or cells: HEK-293
Protocol: as §1, §6, §2, §3, §5

[10] = test system: Receptors containing α3/5/6 subunits and β1/2γ2; assay: as above; type: binding, murine; conditions: 400 nM, 10 min RT; P > 0.05
Protocol: as §1, §6, §2, §3, §5

[11] = biological target: T8, α4β2γ2 GABAAR (Mus musculus, UniProt P22723+P63137+Q9D6F4); assay: as above; type: binding, murine; conditions: 400 nM α-Bgtx-AF555, 10 min RT; n = 6; not significant vs eGFP alone
T8 construct: expressed in transfected cells; host or cells: HEK-293
Protocol: as §1, §6, §2, §3, §5

[12] = biological target: T9, α4β1γ2 GABAAR (Mus musculus, UniProt P22723+P50571+Q9D6F4); assay: as above; type: binding, murine; conditions: 400 nM α-Bgtx-AF555, 10 min RT; n = 6; not significant vs eGFP alone
T9 construct: expressed in transfected cells; host or cells: HEK-293
Protocol: as §1, §6, §2, §3, §5

T5 sequence (P63137 25-512): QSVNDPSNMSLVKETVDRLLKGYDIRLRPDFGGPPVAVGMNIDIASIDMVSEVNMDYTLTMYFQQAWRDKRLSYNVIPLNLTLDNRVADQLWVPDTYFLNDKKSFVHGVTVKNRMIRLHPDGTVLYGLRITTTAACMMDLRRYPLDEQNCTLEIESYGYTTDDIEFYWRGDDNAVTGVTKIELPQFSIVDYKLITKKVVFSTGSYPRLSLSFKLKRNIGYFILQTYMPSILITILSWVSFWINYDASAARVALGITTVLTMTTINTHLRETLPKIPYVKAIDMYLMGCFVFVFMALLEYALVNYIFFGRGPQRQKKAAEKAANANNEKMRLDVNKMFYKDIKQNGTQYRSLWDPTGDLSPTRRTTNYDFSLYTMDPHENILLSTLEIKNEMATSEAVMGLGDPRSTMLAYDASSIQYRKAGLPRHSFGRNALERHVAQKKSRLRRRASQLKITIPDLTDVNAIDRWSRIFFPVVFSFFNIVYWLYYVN
T5 sequence (P26048 29-451): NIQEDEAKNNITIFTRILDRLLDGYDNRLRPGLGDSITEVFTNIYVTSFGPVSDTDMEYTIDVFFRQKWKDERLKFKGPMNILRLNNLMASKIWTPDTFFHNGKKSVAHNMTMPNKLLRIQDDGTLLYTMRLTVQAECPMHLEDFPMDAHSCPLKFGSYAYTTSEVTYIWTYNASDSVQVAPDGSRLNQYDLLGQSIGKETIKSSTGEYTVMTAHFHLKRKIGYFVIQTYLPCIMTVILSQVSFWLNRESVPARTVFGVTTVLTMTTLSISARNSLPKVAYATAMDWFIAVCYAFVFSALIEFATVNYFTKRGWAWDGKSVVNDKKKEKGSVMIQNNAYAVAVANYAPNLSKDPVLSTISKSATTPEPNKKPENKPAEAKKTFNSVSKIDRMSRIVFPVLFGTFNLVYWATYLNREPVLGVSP
T5 sequence (P22723 39-474): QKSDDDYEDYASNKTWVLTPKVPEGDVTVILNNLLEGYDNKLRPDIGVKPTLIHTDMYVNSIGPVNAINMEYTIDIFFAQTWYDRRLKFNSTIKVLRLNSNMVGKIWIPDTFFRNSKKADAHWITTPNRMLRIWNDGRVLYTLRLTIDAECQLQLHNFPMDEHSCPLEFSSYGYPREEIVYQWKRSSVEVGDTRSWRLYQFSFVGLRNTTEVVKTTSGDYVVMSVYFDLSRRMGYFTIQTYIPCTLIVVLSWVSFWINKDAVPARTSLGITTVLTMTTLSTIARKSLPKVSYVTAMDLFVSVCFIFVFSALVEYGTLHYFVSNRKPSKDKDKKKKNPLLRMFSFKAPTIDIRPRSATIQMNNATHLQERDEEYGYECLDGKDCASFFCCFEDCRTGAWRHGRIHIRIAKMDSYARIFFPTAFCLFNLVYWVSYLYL
T4 sequence (P63137 25-512): as the sequence (P63137 25-512) above
T4 sequence (P22723 39-474): as the sequence (P22723 39-474) above
T4 sequence (P62812 28-455): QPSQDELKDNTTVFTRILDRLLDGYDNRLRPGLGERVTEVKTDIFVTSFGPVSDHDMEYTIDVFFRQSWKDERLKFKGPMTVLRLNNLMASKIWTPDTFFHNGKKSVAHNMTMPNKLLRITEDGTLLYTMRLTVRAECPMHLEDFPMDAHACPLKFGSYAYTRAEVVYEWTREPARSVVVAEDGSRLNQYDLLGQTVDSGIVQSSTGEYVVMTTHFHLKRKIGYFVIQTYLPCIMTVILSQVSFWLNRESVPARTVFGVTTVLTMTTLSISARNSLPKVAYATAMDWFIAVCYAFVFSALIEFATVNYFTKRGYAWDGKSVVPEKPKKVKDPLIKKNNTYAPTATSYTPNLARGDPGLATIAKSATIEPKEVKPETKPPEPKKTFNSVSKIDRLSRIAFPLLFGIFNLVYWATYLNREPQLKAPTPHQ
T8 sequence (P63137 25-512): as the sequence (P63137 25-512) above
T8 sequence (P22723 39-474): as the sequence (P22723 39-474) above
T8 sequence (Q9D6F4 36-552): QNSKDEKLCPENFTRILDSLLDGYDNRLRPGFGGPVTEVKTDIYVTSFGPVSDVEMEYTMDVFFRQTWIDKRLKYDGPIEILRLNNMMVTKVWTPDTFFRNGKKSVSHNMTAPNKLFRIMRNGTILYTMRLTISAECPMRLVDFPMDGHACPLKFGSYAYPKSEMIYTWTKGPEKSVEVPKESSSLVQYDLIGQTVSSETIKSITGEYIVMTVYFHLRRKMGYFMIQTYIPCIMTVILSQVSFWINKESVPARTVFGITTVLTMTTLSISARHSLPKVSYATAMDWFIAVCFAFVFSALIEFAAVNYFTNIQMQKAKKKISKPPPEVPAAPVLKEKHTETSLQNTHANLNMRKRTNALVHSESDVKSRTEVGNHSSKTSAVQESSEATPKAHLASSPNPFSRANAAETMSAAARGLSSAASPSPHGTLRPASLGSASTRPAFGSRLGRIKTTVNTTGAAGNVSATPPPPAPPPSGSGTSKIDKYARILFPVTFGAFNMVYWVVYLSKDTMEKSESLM
T1 sequence (P63137 25-512): as the sequence (P63137 25-512) above
T7 sequence (P62812 28-455): as the sequence (P62812 28-455) above
T7 sequence (P50571 26-474): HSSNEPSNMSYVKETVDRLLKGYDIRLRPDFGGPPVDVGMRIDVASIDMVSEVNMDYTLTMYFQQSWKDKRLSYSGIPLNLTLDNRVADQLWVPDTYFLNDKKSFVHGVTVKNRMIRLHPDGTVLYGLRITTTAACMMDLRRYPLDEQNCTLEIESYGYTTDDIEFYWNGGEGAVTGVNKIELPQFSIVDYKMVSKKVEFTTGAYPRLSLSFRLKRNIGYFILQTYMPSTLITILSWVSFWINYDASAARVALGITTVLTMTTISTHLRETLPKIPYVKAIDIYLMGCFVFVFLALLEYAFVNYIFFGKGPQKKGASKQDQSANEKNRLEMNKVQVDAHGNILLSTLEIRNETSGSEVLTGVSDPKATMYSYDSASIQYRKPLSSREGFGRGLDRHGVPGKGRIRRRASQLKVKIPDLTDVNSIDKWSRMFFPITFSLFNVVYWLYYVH
T7 sequence (P22723 39-474): as the sequence (P22723 39-474) above
T6 sequence (P22723 39-474): as above
T6 sequence (P50571 26-474): as the sequence (P50571 26-474) above
T6 sequence (P26048 29-451): as the sequence (P26048 29-451) above
T3 sequence (P63080 26-473): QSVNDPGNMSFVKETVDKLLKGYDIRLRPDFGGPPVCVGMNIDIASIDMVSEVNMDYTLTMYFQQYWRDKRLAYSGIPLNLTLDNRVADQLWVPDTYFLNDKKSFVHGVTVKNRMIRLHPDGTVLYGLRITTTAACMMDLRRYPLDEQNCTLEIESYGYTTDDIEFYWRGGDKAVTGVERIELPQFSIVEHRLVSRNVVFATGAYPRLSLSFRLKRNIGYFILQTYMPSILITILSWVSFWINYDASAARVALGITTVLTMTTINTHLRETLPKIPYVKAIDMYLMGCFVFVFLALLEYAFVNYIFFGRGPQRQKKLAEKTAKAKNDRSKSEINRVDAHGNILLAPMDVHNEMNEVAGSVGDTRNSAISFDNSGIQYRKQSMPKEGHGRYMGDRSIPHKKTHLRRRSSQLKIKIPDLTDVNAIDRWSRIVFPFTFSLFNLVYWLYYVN
T9 sequence (P50571 26-474): as the sequence (P50571 26-474) above
T9 sequence (P22723 39-474): as the sequence (P22723 39-474) above
T9 sequence (Q9D6F4 36-552): as the sequence (Q9D6F4 36-552) above
T2 sequence (P50571 26-474): as the sequence (P50571 26-474) above

Substance: α-Bgtx-AF555: α-Bgtx coupled to Alexa-Fluor 555 (Life Technologies)
- binding of fluorescent α-Bgtx [1]: do not observe any binding
- cell surface and intracellular staining [2]: absent
- cell surface and intracellular staining [3]: absent
- cell surface and intracellular staining [4]: high levels of cell surface and intracellular staining
- mean cell surface fluorescence intensity [5]: 9 ± 4 a.u.
- staining intensity (cell surface fluorescence) [6]: 324 ± 33 a.u.
- mean cell surface fluorescence intensity [7]: 1294 a.u.
- mean cell surface fluorescence intensity [8]: 1057 ± 64 a.u.
- staining intensity (cell surface fluorescence) [9]: 592 ± 46 a.u.
- labelling with α-BgTx-AF555 [10]: did not show any labelling
- staining intensity (cell surface fluorescence) [11]: 64 ± 56 a.u.
- staining intensity (cell surface fluorescence) [12]: 90 ± 64 a.u.

From publication PMC4398322, “Snake neurotoxin α-bungarotoxin is an antagonist at native GABAA receptors” (Neuropharmacology, 2015)
